Among the data in article PMC8887137 are Kd values, retold here.

pKd: −log10 of the molar value.

The subject of this series is NSP12 (RNA-dependent RNA polymerase) (SARS-CoV-2). The series can be described thus: filter binding. Conditions: 20 mM Tris, 200 mM KCl, room temperature, 1 h; pH not stated.

The substance “NSP12 eCLIP peak RNA, region 7431-7555 (hairpin)” showed a pKd of 7.77.

The pKd is the Kd on a negative log10 scale, so that one unit is a factor of ten. A low value points to a high Kd.
